Data from the supplement of paper PMC7877785.
± gives the uncertainty stated by the source.

Assay: self-splicing fitness, log relative to wild type (ln ratio); higher = more splicing; Tetrahymena group I intron in knt gene, E. coli kanamycin selection, DiMSum; sequences stand for … in CUCUCU…GGAGGGAAAAGUUAUCAGGCAUGCACCUGGUAGCUAGUCUUUAAACCAAUAGAUUGCAUCGGUUUAAAAGGCAAGACCGUCAAAUUGCGGGAAAGGGGUCAACAGCCGUUCAGUACCAAGUCUCAGGGGAAACUUUGAGAUGGCCUUGCAAAGGGUAUGGUAAUAAGCUGACGGACAUGGUCCUAACCACGCAGCCAAGUCCUAAGUCAACAGAUCUUCUGUUGAUAUGGAUGCAGUUCACAGACUAAAUGUCGGUCGGGGAAGAUGUAUUCUUCUCAUAAGAUAUAGUCGGACCUCUCCUUAAUGGGAGCUAGCGGAUGAAGUGAUGCAACACUGGAGCCGCUGGGAACUAAUUUGUAUGCGAAAGUAUAUUGAUUAGUUUUGGAGUACUCGUGGUCG
In short: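 Fitness was computed with DiMSum as the error-weighted combination of replicate fold changes, kanamycin versus none, each normalised to wild type. The library randomised all eight intron nucleotides of the P1ex region, with the intron placed in the knt kanamycin-resistance gene on pET-22b(+) in E. coli BL21(DE3). Six replicate transformations were grown overnight at 37°C or 30°C on LB agar with or without 25 μg/mL kanamycin, plus 100 μg/mL carbenicillin, 50 μM IPTG and 0.2% rhamnose. Pooled colonies were amplicon-sequenced on an Illumina HiSeq 2500.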

Sequence | self-splicing fitness (ln) (30 °C) | self-splicing fitness (ln) (37 °C)
UAGGAGCAAUAUUACGGUUA | -1.64 ± 0.12 | 0.0427 ± 0.11
UAGGAGCAAUAUUACGUAGU | -3.13 ± 0.3 | -1.81 ± 0.3
UAGGAGCAAUAUUACGUAUU | -1.97 ± 0.36 | -2.45 ± 0.41
UAGGAGCAAUAUUACGUGAU | -3.75 ± 0.35 | -1.44 ± 0.3
UAGGAGCAAUAUUACGUGCU | -3.16 ± 0.34 | -1.05 ± 0.23
UAGUAGCAAUAUUACGAACU | -0.595 ± 0.16 | -1.05 ± 0.15
UAGUAGCAAUAUUACGACUG | 0.526 ± 0.14 | -0.333 ± 0.17
UAGUAGCAAUAUUACGAGUC | -4.06 ± 0.33 | -2.03 ± 0.23
UAGUAGCAAUAUUACGCCAG | -2.8 ± 0.15 | -1.94 ± 0.15
UAGUAGCAAUAUUACGCCCG | -0.0603 ± 0.35 | 0.255 ± 0.44
UAGUAGCAAUAUUACGCGAU | -2.23 ± 0.42 | -0.904 ± 0.3
UAGUAGCAAUAUUACGCGCC | -2.32 ± 0.28 | -0.984 ± 0.23
UAGUAGCAAUAUUACGCUGU | -3.6 ± 0.36 | -1.91 ± 0.32
UAGUAGCAAUAUUACGGAGC | -2.84 ± 0.35 | –
UAGUAGCAAUAUUACGGAGG | – | -1.43 ± 0.44
UAGUAGCAAUAUUACGGCGA | -1.17 ± 0.17 | -0.54 ± 0.17
UAGUAGCAAUAUUACGGCUA | 0.21 ± 0.14 | -0.257 ± 0.19
UAGUAGCAAUAUUACGGUUU | -3.57 ± 0.31 | -0.883 ± 0.16
UAGUAGCAAUAUUACGUCUU | -0.75 ± 0.097 | -0.388 ± 0.11
UAUAAGCAAUAUUACGAAUG | -1.24 ± 0.087 | -0.222 ± 0.11
UAUAAGCAAUAUUACGAAUU | -2.74 ± 0.19 | -0.731 ± 0.2
UAUAAGCAAUAUUACGACGC | -3.44 ± 0.23 | -1.19 ± 0.17
UAUAAGCAAUAUUACGAGGG | -3.42 ± 0.3 | –
UAUAAGCAAUAUUACGAGGU | -3.53 ± 0.23 | -2.54 ± 0.23
UAUAAGCAAUAUUACGAUUA | -0.327 ± 0.073 | 0.291 ± 0.098
UAUAAGCAAUAUUACGAUUC | -2.68 ± 0.15 | -1.57 ± 0.32

Sequence | self-splicing fitness (ln) (30 °C) | self-splicing fitness (ln) (37 °C)
UAUAAGCAAUAUUACGCAAC | -3.03 ± 0.4 | –
UAUAAGCAAUAUUACGCACA | -0.168 ± 0.085 | -0.211 ± 0.11
UAUAAGCAAUAUUACGCACG | -0.779 ± 0.16 | -0.566 ± 0.17
UAUAAGCAAUAUUACGCGGA | -2.14 ± 0.18 | -0.954 ± 0.16
UAUAAGCAAUAUUACGCGGU | -3.64 ± 0.26 | -3.54 ± 0.34
UAUAAGCAAUAUUACGCUAC | -3.61 ± 0.21 | -1.32 ± 0.17
UAUAAGCAAUAUUACGCUAG | -2 ± 0.18 | -0.688 ± 0.23
UAUAAGCAAUAUUACGGAAG | -2.72 ± 0.18 | -2.05 ± 0.18
UAUAAGCAAUAUUACGGAGG | -2.6 ± 0.28 | -1.67 ± 0.19
UAUAAGCAAUAUUACGGCAC | -1.53 ± 0.17 | -0.422 ± 0.23
UAUAAGCAAUAUUACGGCAG | -0.0494 ± 0.099 | -0.0977 ± 0.14
UAUAAGCAAUAUUACGGGAU | -3.79 ± 0.32 | -2.86 ± 0.19
UAUAAGCAAUAUUACGGUAU | -3.16 ± 0.16 | -2.25 ± 0.17
UAUAAGCAAUAUUACGUAAA | -2.23 ± 0.12 | -0.632 ± 0.14
UAUAAGCAAUAUUACGUACC | -2.51 ± 0.19 | -1.2 ± 0.16
UAUAAGCAAUAUUACGUCCG | -0.775 ± 0.11 | -0.223 ± 0.15
UAUAAGCAAUAUUACGUGUC | -3.33 ± 0.25 | -1.5 ± 0.34
UAUAAGCAAUAUUACGUGUU | -3.24 ± 0.17 | -2.22 ± 0.22
UAUAAGCAAUAUUACGUUCA | -0.586 ± 0.09 | -0.352 ± 0.14
UAUAAGCAAUAUUACGUUCC | -1.83 ± 0.31 | –
UAUAAGCAAUAUUACGUUUC | -3.5 ± 0.38 | -2.43 ± 0.35
UAUCAGCAAUAUUACGAAAA | -0.436 ± 0.13 | -0.123 ± 0.17
UAUCAGCAAUAUUACGAAUC | -3.49 ± 0.26 | -0.458 ± 0.14
UAUCAGCAAUAUUACGACGG | -0.775 ± 0.098 | 0.242 ± 0.13
UAUCAGCAAUAUUACGAGCU | -2.71 ± 0.28 | -1.35 ± 0.21
UAUCAGCAAUAUUACGAGUU | -2.58 ± 0.1 | -0.829 ± 0.089

Sequence | self-splicing fitness (ln) (30 °C) | self-splicing fitness (ln) (37 °C)
UAUCAGCAAUAUUACGAUCG | -0.364 ± 0.095 | 0.612 ± 0.14
UAUCAGCAAUAUUACGCAGU | -2.62 ± 0.13 | -0.577 ± 0.11
UAUCAGCAAUAUUACGCCAC | -3.63 ± 0.48 | –
UAUCAGCAAUAUUACGCCCU | -0.754 ± 0.11 | -0.333 ± 0.14
UAUCAGCAAUAUUACGCGAA | -0.515 ± 0.12 | -0.291 ± 0.15
UAUCAGCAAUAUUACGCUAG | -0.545 ± 0.1 | -0.149 ± 0.12
UAUCAGCAAUAUUACGCUGU | -3.25 ± 0.2 | -2.16 ± 0.15
UAUCAGCAAUAUUACGGAAG | -0.901 ± 0.1 | -0.651 ± 0.12
UAUCAGCAAUAUUACGGACU | -0.533 ± 0.058 | -0.127 ± 0.071
UAUCAGCAAUAUUACGGUGG | -1.2 ± 0.077 | -0.377 ± 0.088
UAUCAGCAAUAUUACGUACG | -0.641 ± 0.087 | 0.404 ± 0.11
UAUCAGCAAUAUUACGUCAG | -1.42 ± 0.093 | -0.143 ± 0.11
UAUCAGCAAUAUUACGUCCA | -0.388 ± 0.12 | -0.0388 ± 0.13
UAUCAGCAAUAUUACGUGGC | -4.28 ± 0.36 | -2.41 ± 0.27
UAUCAGCAAUAUUACGUUGU | -3.84 ± 0.19 | -2.62 ± 0.21
UAUCAGCAAUAUUACGUUUA | -0.174 ± 0.055 | -0.0219 ± 0.069
UAUGAGCAAUAUUACGACGC | – | -1.38 ± 0.32
UAUGAGCAAUAUUACGACGG | -2.02 ± 0.13 | -1.83 ± 0.19
UAUGAGCAAUAUUACGAGCG | -1.32 ± 0.12 | -1.26 ± 0.16
UAUGAGCAAUAUUACGAGGA | – | -1.91 ± 0.27
UAUGAGCAAUAUUACGAGGU | – | -3.62 ± 0.46
UAUGAGCAAUAUUACGAUUC | – | -1.6 ± 0.45
UAUGAGCAAUAUUACGCAAG | -2.66 ± 0.24 | -1.36 ± 0.23
UAUGAGCAAUAUUACGCACC | -1.68 ± 0.49 | -0.807 ± 0.36
UAUGAGCAAUAUUACGCCAU | -2.15 ± 0.2 | -2.59 ± 0.3
UAUGAGCAAUAUUACGGAAG | -3.37 ± 0.37 | -2.14 ± 0.36
